# Measured values published in publication PMC9499646, “Histidine-Rich Glycoprotein Suppresses the S100A8/A9-Mediated Organotropic Metastasis of Melanoma Cells” (International Journal of Molecular Sciences, 2022).
# T1: histidine-rich glycoprotein (HRG), human plasma (human, UniProt P04196 19-525, glycosylated (a total of about 20-KDa glycosyl chains))
# T1 construct: histidine-rich glycoprotein, human plasma protein; 525 amino acids before processing and secretion; In the pull-down three bands (BP1, BP2, BP3) were all identified as HRG; BP2 and BP3 were estimated to be proteolytic products of BP1; also called plasma HRG; BP1; source: endogenous, healthy human plasma (pull-down)
# T1 sequence (looked up): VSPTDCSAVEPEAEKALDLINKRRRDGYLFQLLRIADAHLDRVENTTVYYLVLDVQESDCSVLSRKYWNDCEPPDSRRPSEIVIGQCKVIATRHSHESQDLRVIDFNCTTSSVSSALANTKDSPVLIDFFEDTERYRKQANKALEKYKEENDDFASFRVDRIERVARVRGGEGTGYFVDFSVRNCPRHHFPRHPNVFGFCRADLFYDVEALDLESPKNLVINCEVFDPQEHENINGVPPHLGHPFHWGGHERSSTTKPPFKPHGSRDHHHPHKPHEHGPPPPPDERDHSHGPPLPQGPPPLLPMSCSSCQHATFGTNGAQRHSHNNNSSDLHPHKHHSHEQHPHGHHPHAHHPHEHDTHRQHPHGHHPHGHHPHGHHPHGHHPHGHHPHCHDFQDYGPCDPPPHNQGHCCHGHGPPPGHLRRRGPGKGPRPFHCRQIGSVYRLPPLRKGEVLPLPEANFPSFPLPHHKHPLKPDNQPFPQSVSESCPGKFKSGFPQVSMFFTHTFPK
# B1: human recombinant S100A8/A9 heterodimer (complex)
# chain 1: MLTELEKALNSIIDVYHKYSLIKGNFHAVYRDDLKKLLETECPQYIRKKGADVWFKELDINTDGAVNFQEFLILVIKMGVAAHKKSHEESHKE
# chain 2: MTCKMSQLERNIETIINTFHQYSVKLGHPDTLNQGEFKELVRKDLQNFLKKENKNEKVIEHIMEDLDTNADKQLSFEEFIMLMARLTWASHEKMHEGDEGPGHHHKPGLGEGTP
# modifications: biotinylated in the ELISA (chain and site not stated) | biotinylated in the ELISA (chain and site not stated)
# notes: S100A8 (Calgranulin A), human; S100A9 (Calgranulin B), human; Biotinylated in the ELISA; no biotin is mentioned for the cell assays; also called recombinant human S100A8/A9 heterodimer complex; biotinylated human recombinant S100A8/A9 protein; source: recombinant, highly purified, prepared as described previously [43]
# Target: T1, histidine-rich glycoprotein (HRG), …
# Experiment: ELISA; 96-well plate coated with purified HRG (100 µg/mL); blocked with Blockmaster DB1130; biotinylated S100A8/A9 at different concentrations; HRP-streptavidin, TMB; background of wells without HRG deducted
# Settings: both partners purified
binder,measurement,value
B1,binding result,binds
